The assay concerns the target T1, DAP12, endogenous in mouse cells (splenic cells, FL-PDC) (mouse, UniProt O54885 22-114, phosphorylated in CpG-A-stimulated FL-PDC (sites not given)).
T1 construct: whole, on cells
The experiment in a line: association in CpG-A-stimulated FL-PDC (FIG. 20); method not described.

T1 sequence (O54885 22-114): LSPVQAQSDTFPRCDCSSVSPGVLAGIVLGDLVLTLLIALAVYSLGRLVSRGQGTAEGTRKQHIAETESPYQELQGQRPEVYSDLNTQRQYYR

B1: membrane molecule (A) of the present invention (PDC-TREM), mouse, full length (receptor)
chain: QNPELLRTQEGETVSVTCWYDSLYHSSEKIWCKQIDNLCYPFVSKSAEKPRFLIQQSSRFNFFTVTMTKLKMSDSGIYHCGIVANNTSVYLRNIHLVVSKGSSVVSTPDIIPATRLTKLPTLITTKHSPSDTTTTRSLPQPTTVVSSPDPRVIIINGTDADRGFVSSVTIPVVCGLLSKTLVFTVLFIVTQKSFGRQAMKAHNSNS
notes: also called the present membrane molecule
On to B1, for which the binding result was “binds”.

The values above are taken from patent US20090162869A1 (RIKEN, published 2009).
